Laboratory results from the MegaScale stability set (Tsuboyama et al. 2023).

B1: 2M8U (parent)
chain: TKAQVIEAFKVFDRDGNGYVTVDYLRKVLNELGDMMPADEIEEMIYEADPQNSGYVQYETFVGMLFL

Variants of: B1
Test: folding stability dG (cDNA display proteolysis); higher = more stable
Conditions: PBS, room temperature

In order of rising “folding stability dG” value:
1. TKAQVPEAFKVFDRDGNGYVTVDYLRKVLNELGDMMPADEIEEMIYEADPQNSGYVQYETFVGMLFL [I6P]  1.65 kcal/mol
2. TKAQVIEADKVFDRDGNGYVTVDYLRKVLNELGDMMPADEIEEMIYEADPQNSGYVQYETFVGMLFL [F9D]  1.85 kcal/mol
3. TKAQVIPAFKVFDRDGNGYVTVDYLRKVLNELGDMMPADEIEEMIYEADPQNSGYVQYETFVGMLFL [E7P]  1.91 kcal/mol
4. TKAQVIEAWKVFDRDGNGYVTVDYLRKVLNELGDMMPADEIEEMIYEADPQNSGYVQYETFVGMLFL [F9W]  1.95 kcal/mol
5. TKAQVIEAEKVFDRDGNGYVTVDYLRKVLNELGDMMPADEIEEMIYEADPQNSGYVQYETFVGMLFL [F9E]  1.96 kcal/mol
6. TKAQVIEARKVFDRDGNGYVTVDYLRKVLNELGDMMPADEIEEMIYEADPQNSGYVQYETFVGMLFL [F9R]  1.98 kcal/mol
7. TKAQVIEPFKVFDRDGNGYVTVDYLRKVLNELGDMMPADEIEEMIYEADPQNSGYVQYETFVGMLFL [A8P]  2.02 kcal/mol
8. TKAQVIEAQKVFDRDGNGYVTVDYLRKVLNELGDMMPADEIEEMIYEADPQNSGYVQYETFVGMLFL [F9Q]  2.08 kcal/mol
9. TKAQVIEAGKVFDRDGNGYVTVDYLRKVLNELGDMMPADEIEEMIYEADPQNSGYVQYETFVGMLFL [F9G]  2.1 kcal/mol
10. TKAQVIEAYKVFDRDGNGYVTVDYLRKVLNELGDMMPADEIEEMIYEADPQNSGYVQYETFVGMLFL [F9Y]  2.1 kcal/mol
11. TKAQVIEASKVFDRDGNGYVTVDYLRKVLNELGDMMPADEIEEMIYEADPQNSGYVQYETFVGMLFL [F9S]  2.13 kcal/mol
12. TKAQVIEAHKVFDRDGNGYVTVDYLRKVLNELGDMMPADEIEEMIYEADPQNSGYVQYETFVGMLFL [F9H]  2.14 kcal/mol
13. TKAQVIEAKKVFDRDGNGYVTVDYLRKVLNELGDMMPADEIEEMIYEADPQNSGYVQYETFVGMLFL [F9K]  2.18 kcal/mol
14. TKAQVWEAFKVFDRDGNGYVTVDYLRKVLNELGDMMPADEIEEMIYEADPQNSGYVQYETFVGMLFL [I6W]  2.18 kcal/mol
15. TKAQVIEANKVFDRDGNGYVTVDYLRKVLNELGDMMPADEIEEMIYEADPQNSGYVQYETFVGMLFL [F9N]  2.22 kcal/mol
16. TKAQVSEAFKVFDRDGNGYVTVDYLRKVLNELGDMMPADEIEEMIYEADPQNSGYVQYETFVGMLFL [I6S]  2.25 kcal/mol
17. TKAQVAEAFKVFDRDGNGYVTVDYLRKVLNELGDMMPADEIEEMIYEADPQNSGYVQYETFVGMLFL [I6A]  2.25 kcal/mol
18. TKAQVQEAFKVFDRDGNGYVTVDYLRKVLNELGDMMPADEIEEMIYEADPQNSGYVQYETFVGMLFL [I6Q]  2.31 kcal/mol
19. TKAQVIEAPKVFDRDGNGYVTVDYLRKVLNELGDMMPADEIEEMIYEADPQNSGYVQYETFVGMLFL [F9P]  2.32 kcal/mol
20. TKAQVGEAFKVFDRDGNGYVTVDYLRKVLNELGDMMPADEIEEMIYEADPQNSGYVQYETFVGMLFL [I6G]  2.34 kcal/mol
21. TKAQVDEAFKVFDRDGNGYVTVDYLRKVLNELGDMMPADEIEEMIYEADPQNSGYVQYETFVGMLFL [I6D]  2.38 kcal/mol
22. TKAQVKEAFKVFDRDGNGYVTVDYLRKVLNELGDMMPADEIEEMIYEADPQNSGYVQYETFVGMLFL [I6K]  2.38 kcal/mol
23. TKAQVIWAFKVFDRDGNGYVTVDYLRKVLNELGDMMPADEIEEMIYEADPQNSGYVQYETFVGMLFL [E7W]  2.42 kcal/mol
24. TKAQVREAFKVFDRDGNGYVTVDYLRKVLNELGDMMPADEIEEMIYEADPQNSGYVQYETFVGMLFL [I6R]  2.46 kcal/mol
25. TKAQVIEATKVFDRDGNGYVTVDYLRKVLNELGDMMPADEIEEMIYEADPQNSGYVQYETFVGMLFL [F9T]  2.47 kcal/mol
26. TKAQTIEAFKVFDRDGNGYVTVDYLRKVLNELGDMMPADEIEEMIYEADPQNSGYVQYETFVGMLFL [V5T]  2.49 kcal/mol
27. TKAQVIEDFKVFDRDGNGYVTVDYLRKVLNELGDMMPADEIEEMIYEADPQNSGYVQYETFVGMLFL [A8D]  2.49 kcal/mol
28. TKAQVITAFKVFDRDGNGYVTVDYLRKVLNELGDMMPADEIEEMIYEADPQNSGYVQYETFVGMLFL [E7T]  2.53 kcal/mol
29. TKAQVNEAFKVFDRDGNGYVTVDYLRKVLNELGDMMPADEIEEMIYEADPQNSGYVQYETFVGMLFL [I6N]  2.55 kcal/mol
30. TKAQVYEAFKVFDRDGNGYVTVDYLRKVLNELGDMMPADEIEEMIYEADPQNSGYVQYETFVGMLFL [I6Y]  2.56 kcal/mol
31. TKAQVIEEFKVFDRDGNGYVTVDYLRKVLNELGDMMPADEIEEMIYEADPQNSGYVQYETFVGMLFL [A8E]  2.59 kcal/mol
32. TKAQVFEAFKVFDRDGNGYVTVDYLRKVLNELGDMMPADEIEEMIYEADPQNSGYVQYETFVGMLFL [I6F]  2.6 kcal/mol
33. TKAQVIEAAKVFDRDGNGYVTVDYLRKVLNELGDMMPADEIEEMIYEADPQNSGYVQYETFVGMLFL [F9A]  2.63 kcal/mol
34. TKAQVIEGFKVFDRDGNGYVTVDYLRKVLNELGDMMPADEIEEMIYEADPQNSGYVQYETFVGMLFL [A8G]  2.64 kcal/mol
35. TKAQVIETFKVFDRDGNGYVTVDYLRKVLNELGDMMPADEIEEMIYEADPQNSGYVQYETFVGMLFL [A8T]  2.67 kcal/mol
36. TKAQVIYAFKVFDRDGNGYVTVDYLRKVLNELGDMMPADEIEEMIYEADPQNSGYVQYETFVGMLFL [E7Y]  2.7 kcal/mol
37. TKAQVTEAFKVFDRDGNGYVTVDYLRKVLNELGDMMPADEIEEMIYEADPQNSGYVQYETFVGMLFL [I6T]  2.72 kcal/mol
38. TKAQVISAFKVFDRDGNGYVTVDYLRKVLNELGDMMPADEIEEMIYEADPQNSGYVQYETFVGMLFL [E7S]  2.76 kcal/mol
39. TKAQVHEAFKVFDRDGNGYVTVDYLRKVLNELGDMMPADEIEEMIYEADPQNSGYVQYETFVGMLFL [I6H]  2.76 kcal/mol
40. TKAQVEEAFKVFDRDGNGYVTVDYLRKVLNELGDMMPADEIEEMIYEADPQNSGYVQYETFVGMLFL [I6E]  2.81 kcal/mol
41. TKAQVIENFKVFDRDGNGYVTVDYLRKVLNELGDMMPADEIEEMIYEADPQNSGYVQYETFVGMLFL [A8N]  2.81 kcal/mol
42. TKAQVIEVFKVFDRDGNGYVTVDYLRKVLNELGDMMPADEIEEMIYEADPQNSGYVQYETFVGMLFL [A8V]  2.84 kcal/mol
43. TKAQVIRAFKVFDRDGNGYVTVDYLRKVLNELGDMMPADEIEEMIYEADPQNSGYVQYETFVGMLFL [E7R]  2.85 kcal/mol
44. TKAQVIFAFKVFDRDGNGYVTVDYLRKVLNELGDMMPADEIEEMIYEADPQNSGYVQYETFVGMLFL [E7F]  2.86 kcal/mol
45. TKAQVVEAFKVFDRDGNGYVTVDYLRKVLNELGDMMPADEIEEMIYEADPQNSGYVQYETFVGMLFL [I6V]  2.86 kcal/mol
46. TKAQVIGAFKVFDRDGNGYVTVDYLRKVLNELGDMMPADEIEEMIYEADPQNSGYVQYETFVGMLFL [E7G]  2.87 kcal/mol
47. TKAQVIHAFKVFDRDGNGYVTVDYLRKVLNELGDMMPADEIEEMIYEADPQNSGYVQYETFVGMLFL [E7H]  2.93 kcal/mol
48. TKAQVIQAFKVFDRDGNGYVTVDYLRKVLNELGDMMPADEIEEMIYEADPQNSGYVQYETFVGMLFL [E7Q]  2.96 kcal/mol
49. TKAQVIEHFKVFDRDGNGYVTVDYLRKVLNELGDMMPADEIEEMIYEADPQNSGYVQYETFVGMLFL [A8H]  3.02 kcal/mol
50. TKAQVIIAFKVFDRDGNGYVTVDYLRKVLNELGDMMPADEIEEMIYEADPQNSGYVQYETFVGMLFL [E7I]  3.07 kcal/mol
51. TKAQVIVAFKVFDRDGNGYVTVDYLRKVLNELGDMMPADEIEEMIYEADPQNSGYVQYETFVGMLFL [E7V]  3.08 kcal/mol
52. TKAQVIKAFKVFDRDGNGYVTVDYLRKVLNELGDMMPADEIEEMIYEADPQNSGYVQYETFVGMLFL [E7K]  3.1 kcal/mol
53. TKAQVIESFKVFDRDGNGYVTVDYLRKVLNELGDMMPADEIEEMIYEADPQNSGYVQYETFVGMLFL [A8S]  3.11 kcal/mol
54. TKAQVIEACKVFDRDGNGYVTVDYLRKVLNELGDMMPADEIEEMIYEADPQNSGYVQYETFVGMLFL [F9C]  3.12 kcal/mol
55. TKAQVIMAFKVFDRDGNGYVTVDYLRKVLNELGDMMPADEIEEMIYEADPQNSGYVQYETFVGMLFL [E7M]  3.13 kcal/mol
56. TKAQVIEAFAVFDRDGNGYVTVDYLRKVLNELGDMMPADEIEEMIYEADPQNSGYVQYETFVGMLFL [K10A]  3.13 kcal/mol
57. TKAQVINAFKVFDRDGNGYVTVDYLRKVLNELGDMMPADEIEEMIYEADPQNSGYVQYETFVGMLFL [E7N]  3.17 kcal/mol
58. TKAQVIEYFKVFDRDGNGYVTVDYLRKVLNELGDMMPADEIEEMIYEADPQNSGYVQYETFVGMLFL [A8Y]  3.17 kcal/mol
59. TKAQVIEFFKVFDRDGNGYVTVDYLRKVLNELGDMMPADEIEEMIYEADPQNSGYVQYETFVGMLFL [A8F]  3.23 kcal/mol
60. TKAQVIEAVKVFDRDGNGYVTVDYLRKVLNELGDMMPADEIEEMIYEADPQNSGYVQYETFVGMLFL [F9V]  3.27 kcal/mol
61. TKAQVILAFKVFDRDGNGYVTVDYLRKVLNELGDMMPADEIEEMIYEADPQNSGYVQYETFVGMLFL [E7L]  3.28 kcal/mol
62. TKAQVIEQFKVFDRDGNGYVTVDYLRKVLNELGDMMPADEIEEMIYEADPQNSGYVQYETFVGMLFL [A8Q]  3.3 kcal/mol
63. TKAQVCEAFKVFDRDGNGYVTVDYLRKVLNELGDMMPADEIEEMIYEADPQNSGYVQYETFVGMLFL [I6C]  3.4 kcal/mol
64. TKAQVICAFKVFDRDGNGYVTVDYLRKVLNELGDMMPADEIEEMIYEADPQNSGYVQYETFVGMLFL [E7C]  3.41 kcal/mol
65. TKAQVIDAFKVFDRDGNGYVTVDYLRKVLNELGDMMPADEIEEMIYEADPQNSGYVQYETFVGMLFL [E7D]  3.41 kcal/mol
66. TKAQVMEAFKVFDRDGNGYVTVDYLRKVLNELGDMMPADEIEEMIYEADPQNSGYVQYETFVGMLFL [I6M]  3.42 kcal/mol
67. TKAQVIAAFKVFDRDGNGYVTVDYLRKVLNELGDMMPADEIEEMIYEADPQNSGYVQYETFVGMLFL [E7A]  3.46 kcal/mol
68. TKAQVIECFKVFDRDGNGYVTVDYLRKVLNELGDMMPADEIEEMIYEADPQNSGYVQYETFVGMLFL [A8C]  3.46 kcal/mol
69. TKAQVIEIFKVFDRDGNGYVTVDYLRKVLNELGDMMPADEIEEMIYEADPQNSGYVQYETFVGMLFL [A8I]  3.5 kcal/mol
70. TKAQVIELFKVFDRDGNGYVTVDYLRKVLNELGDMMPADEIEEMIYEADPQNSGYVQYETFVGMLFL [A8L]  3.56 kcal/mol
71. TKAQVIEWFKVFDRDGNGYVTVDYLRKVLNELGDMMPADEIEEMIYEADPQNSGYVQYETFVGMLFL [A8W]  3.56 kcal/mol
72. TKAQVIERFKVFDRDGNGYVTVDYLRKVLNELGDMMPADEIEEMIYEADPQNSGYVQYETFVGMLFL [A8R]  3.6 kcal/mol
73. TKAQVIEKFKVFDRDGNGYVTVDYLRKVLNELGDMMPADEIEEMIYEADPQNSGYVQYETFVGMLFL [A8K]  3.62 kcal/mol
74. TKAQVLEAFKVFDRDGNGYVTVDYLRKVLNELGDMMPADEIEEMIYEADPQNSGYVQYETFVGMLFL [I6L]  3.66 kcal/mol
75. TKAQVIEMFKVFDRDGNGYVTVDYLRKVLNELGDMMPADEIEEMIYEADPQNSGYVQYETFVGMLFL [A8M]  3.76 kcal/mol
76. TKAQVIEAMKVFDRDGNGYVTVDYLRKVLNELGDMMPADEIEEMIYEADPQNSGYVQYETFVGMLFL [F9M]  3.82 kcal/mol
77. TKAQYIEAFKVFDRDGNGYVTVDYLRKVLNELGDMMPADEIEEMIYEADPQNSGYVQYETFVGMLFL [V5Y]  4.08 kcal/mol
78. TKAQVIEAIKVFDRDGNGYVTVDYLRKVLNELGDMMPADEIEEMIYEADPQNSGYVQYETFVGMLFL [F9I]  4.09 kcal/mol
79. TKAQWIEAFKVFDRDGNGYVTVDYLRKVLNELGDMMPADEIEEMIYEADPQNSGYVQYETFVGMLFL [V5W]  4.09 kcal/mol
80. TKAQVIEALKVFDRDGNGYVTVDYLRKVLNELGDMMPADEIEEMIYEADPQNSGYVQYETFVGMLFL [F9L]  4.1 kcal/mol
